According to paper PMC3989768, “Activation of the γ-Tubulin Complex by the Mto1/2 Complex” (Current Biology, 2014):

Target: the molecule itself
Assay: glycerol density-gradient centrifugation; material partially purified by Mto2-SZZ (IgG beads, TEV cleavage) from mto1[9A1-bonsai]-GFP or mto1Δ lysates, before and after 10-fold concentration; isokinetic glycerol gradient, 2.5 hr or 45 min; quantitative western blotting

B1: Mto2-S (the TEV protease cleavage product of Mto2-SZZ) (natural protein, Schizosaccharomyces pombe, UniProt Q9USP7 1-397, looked up)
chain: MSEHNYQSDREVAEDPFLNYEASANQLSSNSRESTPRGSPWRAGMRSASLMTEPLEDSMYSDNNYLDNGVSFTKDENPLYSPSWPSLADANVNSMKSNNAIQEHKAAKFVSEKSLEKVSTADNNLVLQELENLRERLNQVELQLSERPSSYLGYHNNLSPYRSPNSYPSLLPSTHSPHSPAPLSTMQTALMRLRTYHPSPIILKPVEQAVNHAITLVNTSPSSVVDALCRSLAELCLGLVQEAIDASILSQQESSNSLDLVRHTPPLNYTSSVDSSPQRMASDSYGRPSLHLNDPFPSVDLQSNELSHHNVRTTLFSDDSRFHSKIHTHSTPPSQMYSAASHFRYRSDPSTRHVSNSTNKSSLHPSPTSLRVAHPIIPQRASPASQSFPSLQDTPSP
notes: Mto2, Schizosaccharomyces pombe; source: S. pombe, partially purified (immunoglobulin G beads, TEV protease cleavage), enriched 3,400-fold
binding result: binds
